{"source": "patent US20230242646A1", "about": "(JJP BIOLOGICS SP Z O O, published 2023)", "binders": {"B1": {"name": "CD89/IgA blocking mouse anti-human CD89-specific antibody 9H7 (antibody, V domains shown)", "VH": "QIQLVQSGPELKKPGETVKISCKASGYTFKNYGMNWVKQAPGKGLKWMAWINTYTGEPTHTDDFKGRFVFSLETSASTAYLQINNLKNEDTATYFCARWGLGTTEEAARDYWGQGTTLTVSS", "VL": "not shown"}, "B2": {"name": "CD89/IgA blocking mouse anti-human CD89-specific antibody 16D6 (antibody, V domains shown)", "VH": "QVQLQQSGAELMKPGASVKISCKATGYTFSTYWIEWVKQRPGHGLEWIGEILPGSGSANYNEKFKGKATFTADTSSNTAYMQLSSLTFEDSAVYYCAKGFGSPYYYAMDYWGQGTSVTVSS", "VL": "EIVLTQSPALMAASPGEKVTITCSVSSSISSSNLHWYQQKSETSPKPWIYGTSKLASGVPVRFSGSGSGTSYSLTISNMEAEDAATYYCQQWSSFPLTFGGGTKLEIK", "notes": "also called 16D16 [sic]"}, "B3": {"name": "CD89/IgA blocking mouse anti-human CD89-specific antibody 26D6 (antibody, V domains shown)", "VH": "QIQLVQSGPELKKPGETVKISCKASGYTLTKYGMNWVKQAPGKGLKWMGWINTYTGEPTYADDFKGRFAFSLETSASTAYLQINNLKNEDTATYFCASLPLFGRDSFAYWGQGTLVTVSA", "VL": "not shown", "notes": "also called 26B6 [sic]"}}, "key": {"[1]": {"molecular_target": "T1, membrane-bound full-length human CD89 on HEK293F cells (human, UniProt P24071 22-287)", "T1 construct": "2 or transient transfectants; also called membrane human CD89; human FcaRI", "assay": "FACS on HEK293F-huCD89", "protocol": "Then, 10 µL/tube (i.e., 0.1 x 10⁶ cells) of these cells were incubated with 100 µL titrated (in PBS/BSA/NaN₃) purified mouse anti-human CD89 antibody/tube for 30 minutes at 4° C. […] After extensive washing in PBS/BSA/NaN₃, cells were subsequently incubated with 1:200 diluted PE-conjugated goat anti-mouse IgG Fcy-specific antibodies (Jackson ImmunoResearch) for 30 minutes at 4° C. After extensive washing in PBS/BSA/NaN₃, cells were fixed in 2% formaldehyde in PBS/BSA/NaN₃ for 30 minutes at 4° C."}, "[2]": {"molecular_target": "T2, recombinant C-terminal polyhistidine-tagged human (extracellular) CD89 (Sino Biological) (human, UniProt P24071 22-227)", "T2 construct": "extracellular domain; bought protein; also called rhuCD89; soluble monomeric rhuCD89", "assay": "ELISA on coated rhuCD89", "protocol": "(§1) After extensive washing with PBS/0.05% Tween 20, plates were blocked with PBS/0.05% Tween 20/1% BSA (Roche) for 1 hour at RT. Subsequently, plates were incubated with 50 µL titrated (in block buffer) purified mouse anti-human CD89 antibody/well for 1 hour at RT. […] After extensive washing in PBS/0.05% Tween 20, binding of antibodies on rhuCD89 was determined with 1:5,000 diluted horseradish peroxidase (HRP)-conjugated goat anti-mouse IgG Fcy-specific antibodies (Jackson ImmunoResearch) for 1 hour at RT, followed by a ready-to-use solution of TMB substrate (Invitrogen) for colorimetric detection."}, "[3]": {"molecular_target": "T3, membrane human CD89 on ex vivo primary human neutrophilic granulocytes or monocytic U937 cells (human, UniProt P24071 22-287)", "assay": "cell-based or functional assay"}, "[4]": {"molecular_target": "T3, membrane human CD89 on ex vivo primary …", "assay": "cell-based or functional assay", "remark": "listed apart in the source"}, "[5]": {"molecular_target": "T1, membrane-bound full-length human CD89 …", "assay": "FACS HEK293F-huCD89, 10 ug/mL; competitor PE-MIP8a", "protocol": "(§2) Then, 10 µL/tube (i.e., 0.1 × 10⁶ cells) of these cells were incubated with or without 100 µL purified mouse anti-human CD89 antibody at 10 µg/mL (in PBS/BSA/NaN₃) for 30 minutes at 4° C. […] After extensive washing in PBS/BSA/NaN₃, cells were fixed in 2% formaldehyde in PBS/BSA/NaN₃ for 30 minutes at 4° C."}, "[6]": {"molecular_target": "T1, membrane-bound full-length human CD89 …", "assay": "FACS, unlabelled antibody before A3-PE on HEK293F-huCD89"}, "[7]": {"molecular_target": "T1, membrane-bound full-length human CD89 …", "assay": "FACS, unlabelled antibody before MIP8a-PE on HEK293F-huCD89"}, "[8]": {"molecular_target": "T1, membrane-bound full-length human CD89 …", "assay": "FACS, antibody before serum IgA on HEK293F-huCD89; IgA detected", "protocol": "Then, 10 µL/tube (i.e., 0.1 x 10⁶ cells) of these cells were incubated with 50 µL titrated (in PBS/BSA/NaN₃) purified mouse anti-human CD89 antibody/tube for 30 minutes at 4° C. […] After extensive washing in PBS/BSA/NaN₃, 1:200 diluted PE-conjugated streptavidin (Jackson ImmunoResearch) was added, and incubated for 30 minutes at 4° C. After extensive washing in PBS/BSA/NaN₃, cells were fixed in 2% formaldehyde in PBS/BSA/NaN₃ for 30 minutes at 4° C."}, "[9]": {"molecular_target": "T2, recombinant C-terminal …", "assay": "ELISA, antibody before serum IgA on coated rhuCD89; IgA detected", "protocol": "After extensive washing with PBS/0.05% Tween 20, plates were blocked with PBS/0.05% Tween 20/1% BSA (Roche) for 1 hour at RT. Subsequently, plates were incubated with 25 µL titrated (in block buffer) purified mouse anti-human CD89 antibody/well for 30 minutes at RT. […] After extensive washing in PBS/0.05% Tween 20, 1:10,000 diluted HRP-conjugated streptavidin (Jackson ImmunoResearch) was added, and incubated for 1 hour at RT, followed by a ready-to-use solution of TMB substrate (Invitrogen) for colorimetric detection."}, "[10]": {"molecular_target": "T1, membrane-bound full-length human CD89 …", "assay": "FACS, antibody before secretory IgA on HEK293F-huCD89; IgA detected", "protocol": "Then, 10 µL/tube (i.e., 0.1 x 10⁶ cells) of these cells were incubated with or without 50 µL titrated (in PBS/BSA/NaN₃) purified mouse anti-human CD89 antibody/tube for 30 minutes at 4° C. […] After extensive washing in PBS/BSA/NaN₃, 1:200 diluted PE-conjugated streptavidin (Jackson ImmunoResearch) was added, and incubated for 30 minutes at 4° C. After extensive washing in PBS/BSA/NaN₃, cells were fixed in 4% formaldehyde in PBS/BSA/NaN₃ for 30 minutes at 4° C."}, "[11]": {"molecular_target": "T1, membrane-bound full-length human CD89 …", "assay": "FACS HEK293F-huCD89", "protocol": "After extensive washing in PBS/BSA/NaN₃, cells were subsequently incubated with 1:200 diluted PE-conjugated goat anti-human IgG Fcy-specific antibodies (Jackson ImmunoResearch) for 30 minutes at 4° C. After extensive washing in PBS/BSA/NaN₃, cells were fixed in 2% formaldehyde in PBS/BSA/NaN₃ for 30 minutes at 4° C."}, "[12]": {"molecular_target": "T2, recombinant C-terminal …", "assay": "ELISA, coated rhuCD89", "protocol": "as §1\nAfter extensive washing with PBS/0.05% Tween 20, plates were blocked with PBS/0.05% Tween 20/1% BSA (Roche) for 1 hour at RT. […] After extensive washing in PBS/0.05% Tween 20, binding of antibodies on rhuCD89 was determined with 1:5,000 diluted horseradish peroxidase (HRP)-conjugated goat anti-human IgG Fcy-specific antibodies (Jackson ImmunoResearch) for 1 hour at RT, followed by a ready-to-use solution of TMB substrate (Invitrogen) for colorimetric detection."}, "[13]": {"molecular_target": "T1, membrane-bound full-length human CD89 …", "assay": "FACS HEK293F-huCD89, 10 ug/mL; competitor PE-A3", "protocol": "as §2"}, "[14]": {"molecular_target": "T1, membrane-bound full-length human CD89 …", "assay": "FACS HEK293F-huCD89, 10 ug/mL; competitor PE-A59", "protocol": "as §2"}, "[15]": {"molecular_target": "T4, chimeric bovine EC1-Fcgamma2R/human EC2-CD89 on HEK293F cells (bovine/human chimera)", "T4 chain": "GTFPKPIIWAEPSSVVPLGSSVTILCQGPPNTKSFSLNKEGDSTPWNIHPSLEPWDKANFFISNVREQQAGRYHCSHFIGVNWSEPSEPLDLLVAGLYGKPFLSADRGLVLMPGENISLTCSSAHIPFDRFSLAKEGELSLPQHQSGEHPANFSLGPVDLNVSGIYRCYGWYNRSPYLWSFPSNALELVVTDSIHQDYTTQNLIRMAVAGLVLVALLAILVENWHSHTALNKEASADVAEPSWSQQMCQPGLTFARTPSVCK", "assay": "FACS, transiently transfected HEK293F"}, "[16]": {"molecular_target": "T5, chimeric human/cynomolgus monkey CD89-hotspots on HEK293F cells (human/cynomolgus chimera, UniProt P24071 22-287)", "T5 construct": "also called dThr58, Gln59; dArg73, Arg74, Lys76", "T5 chain": "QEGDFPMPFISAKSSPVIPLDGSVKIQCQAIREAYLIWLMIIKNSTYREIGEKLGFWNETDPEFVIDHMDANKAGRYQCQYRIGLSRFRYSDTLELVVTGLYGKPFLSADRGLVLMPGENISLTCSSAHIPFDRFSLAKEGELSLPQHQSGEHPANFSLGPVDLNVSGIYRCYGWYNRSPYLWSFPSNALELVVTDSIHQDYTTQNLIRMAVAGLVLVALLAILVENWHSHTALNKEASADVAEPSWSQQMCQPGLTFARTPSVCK", "assay": "FACS, transiently transfected HEK293F"}, "[17]": {"molecular_target": "T6, membrane full-length cynomolgus monkey CD89 on HEK293F cells (cynomolgus monkey)", "T6 construct": "also called cynoCD89; cynomolgus EC1-CD89", "T6 chain": "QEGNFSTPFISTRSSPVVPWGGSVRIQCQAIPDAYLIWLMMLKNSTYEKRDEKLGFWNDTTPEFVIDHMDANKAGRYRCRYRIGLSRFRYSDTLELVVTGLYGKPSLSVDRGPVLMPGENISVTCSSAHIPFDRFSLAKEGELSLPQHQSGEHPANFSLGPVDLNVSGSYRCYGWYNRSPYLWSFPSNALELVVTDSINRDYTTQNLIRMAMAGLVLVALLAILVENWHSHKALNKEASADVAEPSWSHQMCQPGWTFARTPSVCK", "assay": "FACS, 10 µg/mL, transiently transfected HEK293F", "protocol": "(§3) To this end, transient transfected HEK293F cells were put at 10 x 10⁶ cells/mL in ice-chilled phosphate-buffered saline containing 0.1% BSA (Sigma)/0.05% NaN₃ (PBS/BSA/NaN₃) supplemented with 50 µg/mL human IgGs (blocking FcY receptors; Sigma) for 10 minutes at 4° C. Then, 10 µL/tube (i.e., 0.1 × 10⁶ cells) of these cells were incubated with or without 100 µL purified mouse anti-human CD89 antibody at 10 µg/mL (in PBS/BSA/NaN₃) for 30 minutes at 4° C. […] After extensive washing in PBS/BSA/NaN₃, cells were subsequently incubated with 1:200 diluted PE-conjugated goat anti-mouse IgG Fcy-specific antibodies (Jackson ImmunoResearch) for 30 minutes at 4° C. After extensive washing in PBS/BSA/NaN₃, cells were fixed in 2% formaldehyde in PBS/BSA/NaN₃ for 30 minutes at 4° C."}, "[18]": {"molecular_target": "T7, chimeric human/cynomolgus monkey CD89-I on HEK293F cells (human/cynomolgus chimera, UniProt P24071 22-287)", "T7 construct": "also called dGln22 - Lys46 human EC1-CD89; I (22-46)", "T7 chain": "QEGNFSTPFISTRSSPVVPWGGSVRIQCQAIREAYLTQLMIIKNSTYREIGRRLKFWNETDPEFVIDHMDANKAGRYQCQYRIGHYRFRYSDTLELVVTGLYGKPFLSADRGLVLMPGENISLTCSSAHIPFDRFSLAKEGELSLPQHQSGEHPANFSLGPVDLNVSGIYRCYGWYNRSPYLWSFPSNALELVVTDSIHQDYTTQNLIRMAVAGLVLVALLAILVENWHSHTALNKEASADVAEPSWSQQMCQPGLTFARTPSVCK", "assay": "FACS, 10 µg/mL, transiently transfected HEK293F", "protocol": "(§4) To this end, transient transfected HEK293F cells were put at 10 × 10⁶ cells/mL in ice-chilled phosphate-buffered saline containing 0.1% BSA (Sigma)/0.05% NaN₃ (PBS/BSA/NaN₃) supplemented with 50 µg/mL human IgGs (blocking FcY receptors; Sigma) for 10 minutes at 4° C. Then, 10 µL/tube (i.e., 0.1 × 10⁶ cells) of these cells were incubated with or without 100 µL purified mouse anti-human CD89 antibody at 10 µg/mL (in PBS/BSA/NaN₃) for 30 minutes at 4° C. […] After extensive washing in PBS/BSA/NaN₃, cells were subsequently incubated with 1:200 diluted PE-conjugated goat anti-mouse IgG Fcy-specific antibodies (Jackson ImmunoResearch) for 30 minutes at 4° C. After extensive washing in PBS/BSA/NaN₃, cells were fixed in 2% formaldehyde in PBS/BSA/NaN₃ for 30 minutes at 4° C."}, "[19]": {"molecular_target": "T8, chimeric human/cynomolgus monkey CD89-II on HEK293F cells (human/cynomolgus chimera, UniProt P24071 22-287)", "T8 construct": "also called dIle47 - Ile71 human EC1-CD89; II (47-71)", "T8 chain": "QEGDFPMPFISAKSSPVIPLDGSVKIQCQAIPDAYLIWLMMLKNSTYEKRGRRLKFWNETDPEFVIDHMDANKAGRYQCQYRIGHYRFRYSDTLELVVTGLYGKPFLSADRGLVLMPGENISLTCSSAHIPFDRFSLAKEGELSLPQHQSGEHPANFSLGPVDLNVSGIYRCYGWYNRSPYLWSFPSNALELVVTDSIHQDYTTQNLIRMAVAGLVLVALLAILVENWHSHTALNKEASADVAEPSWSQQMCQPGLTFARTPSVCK", "assay": "FACS, 10 µg/mL, transiently transfected HEK293F", "protocol": "as §4"}, "[20]": {"molecular_target": "T9, chimeric human/cynomolgus monkey CD89-III on HEK293F cells (human/cynomolgus chimera, UniProt P24071 22-287)", "T9 construct": "also called dGly72 - Gly96 human EC1-CD89; III (72-96)", "T9 chain": "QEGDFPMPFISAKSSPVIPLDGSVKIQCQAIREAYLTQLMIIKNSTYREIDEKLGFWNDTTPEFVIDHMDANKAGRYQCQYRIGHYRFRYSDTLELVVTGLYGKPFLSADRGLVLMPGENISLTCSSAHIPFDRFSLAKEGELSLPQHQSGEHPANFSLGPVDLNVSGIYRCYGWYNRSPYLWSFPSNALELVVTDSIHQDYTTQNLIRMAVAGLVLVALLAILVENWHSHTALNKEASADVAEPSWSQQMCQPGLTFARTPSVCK", "assay": "FACS, 10 µg/mL, transiently transfected HEK293F", "protocol": "as §4"}, "[21]": {"molecular_target": "T10, chimeric human/cynomolgus monkey CD89-IV on HEK293F cells (human/cynomolgus chimera, UniProt P24071 22-287)", "T10 construct": "also called dArg97 - Gly121 human EC1-CD89", "T10 chain": "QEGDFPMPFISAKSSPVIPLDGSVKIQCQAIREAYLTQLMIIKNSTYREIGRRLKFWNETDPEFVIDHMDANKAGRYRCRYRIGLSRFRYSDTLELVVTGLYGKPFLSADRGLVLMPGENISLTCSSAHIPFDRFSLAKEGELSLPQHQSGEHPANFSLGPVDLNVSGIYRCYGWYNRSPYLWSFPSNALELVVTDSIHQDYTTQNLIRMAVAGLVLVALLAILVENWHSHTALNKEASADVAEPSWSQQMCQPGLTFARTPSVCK", "assay": "FACS, 10 µg/mL, transiently transfected HEK293F", "protocol": "as §4"}, "[22]": {"molecular_target": "T3, membrane human CD89 on ex vivo primary …", "assay": "cell-based or functional assay", "remark": "listed apart in the source"}, "[23]": {"molecular_target": "T6, membrane full-length cynomolgus monkey …", "assay": "FACS, transiently transfected HEK293F", "protocol": "as §3"}, "[24]": {"molecular_target": "T5, chimeric human/cynomolgus monkey …", "assay": "FACS, 10 µg/mL, transiently transfected HEK293F", "protocol": "as §4"}}}
{"binder": "B1", "values": [{"measurement": "EC50 (read off the curve)", "setting": "[1]", "result": "~0.2", "unit": "µg/mL"}, {"measurement": "EC50 (read off the curve)", "setting": "[2]", "result": "~0.01", "unit": "µg/mL"}, {"measurement": "IC50 (read off the bars), binding of granulocytes to plate-bound serum IgA [Donor 1]", "setting": "[3]", "result": "~0.9", "unit": "µg/mL"}, {"measurement": "IC50 (read off the bars), binding of granulocytes to plate-bound serum IgA [Donor 2]", "setting": "[4]", "result": "~0.2", "unit": "µg/mL"}, {"measurement": "% blocking of PE-MIP8a binding", "setting": "[5]", "result": "> 90", "unit": "%"}, {"measurement": "IC50 (read off the curve)", "setting": "[6]", "result": "~0.4", "unit": "µg/mL"}, {"measurement": "IC50 (read off the curve)", "setting": "[7]", "result": "~0.4", "unit": "µg/mL"}, {"measurement": "IC50 (read off the curve)", "setting": "[8]", "result": "~0.2", "unit": "µg/mL"}, {"measurement": "IC50 (read off the curve)", "setting": "[9]", "result": "~0.03", "unit": "µg/mL"}, {"measurement": "IC50 (read off the curve)", "setting": "[10]", "result": "~0.4", "unit": "µg/mL"}]}
{"binder": "B2", "values": [{"measurement": "EC50", "setting": "[11]", "result": 1.62, "unit": "µg/mL"}, {"measurement": "EC50", "setting": "[12]", "result": 0.119, "unit": "µg/mL"}, {"measurement": "% blocking of PE-A3 binding", "setting": "[13]", "result": "< 25", "unit": "%"}, {"measurement": "% blocking of PE-A59 binding", "setting": "[14]", "result": "< 25", "unit": "%"}, {"measurement": "% blocking of PE-MIP8a binding", "setting": "[5]", "result": "< 25", "unit": "%"}, {"measurement": "binding result", "setting": "[15]", "result": "no binding (tested: 10 µg/mL)"}, {"measurement": "binding result", "setting": "[16]", "result": "no binding (tested: 10 µg/mL)"}, {"measurement": "binding result", "setting": "[17]", "result": "binds"}, {"measurement": "binding result", "setting": "[18]", "result": "binds"}, {"measurement": "binding result", "setting": "[19]", "result": "binds"}, {"measurement": "binding result", "setting": "[20]", "result": "binds"}, {"measurement": "binding result", "setting": "[21]", "result": "binds"}]}
{"binder": "B3", "values": [{"measurement": "EC50 (read off the curve)", "setting": "[2]", "result": "~0.008", "unit": "µg/mL"}, {"measurement": "IC50 (read off the bars), binding of granulocytes to plate-bound serum IgA [Donor 2]", "setting": "[4]", "result": "~0.1", "unit": "µg/mL"}, {"measurement": "IC50 (read off the bars), binding of granulocytes to plate-bound serum IgA [Donor 3]", "setting": "[22]", "result": "~1", "unit": "µg/mL"}, {"measurement": "% blocking of PE-MIP8a binding", "setting": "[5]", "result": "> 90", "unit": "%"}, {"measurement": "binding result", "setting": "[15]", "result": "no binding (tested: 10 µg/mL)"}, {"measurement": "binding result", "setting": "[23]", "result": "no binding (tested: 10 µg/mL)"}, {"measurement": "binding result", "setting": "[18]", "result": "binds"}, {"measurement": "binding result", "setting": "[19]", "result": "binds"}, {"measurement": "binding result", "setting": "[20]", "result": "binds"}, {"measurement": "binding result", "setting": "[24]", "result": "binds"}, {"measurement": "IC50 (read off the curve)", "setting": "[6]", "result": "~0.3", "unit": "µg/mL"}, {"measurement": "IC50 (read off the curve)", "setting": "[8]", "result": "~0.2", "unit": "µg/mL"}, {"measurement": "IC50 (read off the curve)", "setting": "[10]", "result": "~0.3", "unit": "µg/mL"}]}
